T1: human EphA1 extracellular region-SEAP-His protein (human, UniProt P21709 26-547)
T1 construct: extracellular domain; also called Eph receptor extracellular region-SEAP-His protein; not shown: secretory alkaline phosphatase (SEAP); histidine tag
T1 sequence (looked up): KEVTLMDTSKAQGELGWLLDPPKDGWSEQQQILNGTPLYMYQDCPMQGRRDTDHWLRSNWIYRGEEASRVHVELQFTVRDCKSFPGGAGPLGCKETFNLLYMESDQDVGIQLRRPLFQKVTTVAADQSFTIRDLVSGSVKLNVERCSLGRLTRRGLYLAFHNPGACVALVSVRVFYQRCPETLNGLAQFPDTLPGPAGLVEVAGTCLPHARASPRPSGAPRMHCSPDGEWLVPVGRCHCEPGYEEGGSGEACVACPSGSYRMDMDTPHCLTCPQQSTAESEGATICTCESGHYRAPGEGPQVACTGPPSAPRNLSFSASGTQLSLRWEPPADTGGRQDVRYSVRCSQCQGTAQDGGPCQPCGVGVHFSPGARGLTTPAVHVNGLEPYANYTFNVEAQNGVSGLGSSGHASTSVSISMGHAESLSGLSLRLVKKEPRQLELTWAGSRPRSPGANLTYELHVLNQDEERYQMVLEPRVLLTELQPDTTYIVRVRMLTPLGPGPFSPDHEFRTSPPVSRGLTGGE

T2: mouse EphA3 extracellular region-Fc-His protein (mouse; human, UniProt P29319 21-540)
T2 construct: extracellular domain; not shown: Fc region of human IgG1; histidine tag
T2 sequence (looked up): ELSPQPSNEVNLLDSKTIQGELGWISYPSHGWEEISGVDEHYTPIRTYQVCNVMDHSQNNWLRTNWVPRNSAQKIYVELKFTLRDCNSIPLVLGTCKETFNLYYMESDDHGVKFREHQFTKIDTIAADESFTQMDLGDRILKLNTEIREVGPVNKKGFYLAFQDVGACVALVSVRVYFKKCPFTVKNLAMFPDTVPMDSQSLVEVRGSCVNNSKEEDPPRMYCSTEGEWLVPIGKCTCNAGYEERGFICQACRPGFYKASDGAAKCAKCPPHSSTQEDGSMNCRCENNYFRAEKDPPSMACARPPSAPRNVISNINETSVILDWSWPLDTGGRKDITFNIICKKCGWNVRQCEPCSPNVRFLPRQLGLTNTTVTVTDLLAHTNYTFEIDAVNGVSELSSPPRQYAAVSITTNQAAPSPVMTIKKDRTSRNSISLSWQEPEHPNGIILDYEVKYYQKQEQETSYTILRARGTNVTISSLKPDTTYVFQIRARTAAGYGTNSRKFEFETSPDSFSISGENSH


Key:
[1] = biological target: T1, human EphA1 extracellular …; experiment: ELISA: SEAP-His proteins (1 nM) captured on anti-6-His antibody, antibody B 10 µg/mL with human IgG 100 µg/mL, HRP anti-human IgG, OD450 as % of human EphA4-SEAP-His
[2] = biological target: T2, mouse EphA3 extracellular region-Fc-His …; experiment: ELISA: Fc-His proteins (1 nM) captured on anti-6-His antibody, antibody A 10 µg/mL with human IgG 100 µg/mL, HRP anti-mouse IgG, OD450 as % of mouse EphA4-Fc-His
[3] = biological target: T3, mouse EphA4 extracellular region-SEAP-His protein (mouse); experiment: SPR (Biacore T200): mouse EphA4 extracellular region-SEAP-His captured on anti-His antibody, antibody A 1.6-100 nM as analyte, 1:1 fit
T3 construct: also called mouse EphA4 extracellular region-SEAP-His 10
T3 sequence (chain, as listed by the source limits assumed): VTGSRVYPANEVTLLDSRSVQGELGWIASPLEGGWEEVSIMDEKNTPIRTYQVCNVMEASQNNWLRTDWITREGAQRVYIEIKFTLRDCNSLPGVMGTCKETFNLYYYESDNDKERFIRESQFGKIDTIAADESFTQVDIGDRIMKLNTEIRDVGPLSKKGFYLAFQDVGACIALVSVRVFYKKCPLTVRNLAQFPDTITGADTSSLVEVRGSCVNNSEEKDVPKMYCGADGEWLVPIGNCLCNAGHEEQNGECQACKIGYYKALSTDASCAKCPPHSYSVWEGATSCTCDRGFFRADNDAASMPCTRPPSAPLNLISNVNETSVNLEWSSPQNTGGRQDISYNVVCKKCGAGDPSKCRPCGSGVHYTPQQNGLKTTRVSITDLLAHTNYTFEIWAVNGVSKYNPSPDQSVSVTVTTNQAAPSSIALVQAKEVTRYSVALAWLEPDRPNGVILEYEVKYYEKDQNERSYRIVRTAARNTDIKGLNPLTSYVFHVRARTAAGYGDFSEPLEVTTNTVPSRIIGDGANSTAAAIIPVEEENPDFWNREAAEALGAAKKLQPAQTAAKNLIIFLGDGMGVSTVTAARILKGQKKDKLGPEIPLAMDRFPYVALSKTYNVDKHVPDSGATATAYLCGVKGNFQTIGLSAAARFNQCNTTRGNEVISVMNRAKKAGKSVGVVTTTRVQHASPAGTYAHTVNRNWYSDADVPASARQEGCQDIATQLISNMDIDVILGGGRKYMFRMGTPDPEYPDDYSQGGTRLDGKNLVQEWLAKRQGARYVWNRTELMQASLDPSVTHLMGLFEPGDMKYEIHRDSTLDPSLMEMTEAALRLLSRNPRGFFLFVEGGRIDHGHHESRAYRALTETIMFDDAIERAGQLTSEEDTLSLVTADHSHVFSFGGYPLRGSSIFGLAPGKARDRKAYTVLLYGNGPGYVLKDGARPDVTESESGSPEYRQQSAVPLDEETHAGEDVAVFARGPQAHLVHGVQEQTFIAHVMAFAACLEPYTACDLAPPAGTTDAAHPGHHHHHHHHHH
Procedure: (§1) The binding affinity of antibody A against mouse and human EphA4 was determined by surface plasmon resonance (SPR method) employing Biacore T200 (GE Healthcare). First, anti-His antibodies (GE Healthcare, 28-9950-56) were fixed to a sensor chip CM5. Fixation was carried out by amine coupling method employing N-hydroxysuccinimide (NHS) and N-ethyl-N′-(3-dimethylaminopropyl) carbodiimide hydrochloride salt (EDC), and ethanolamine was employed for blocking (the sensor chip and reagents for fixation are all from GE Healthcare). This was diluted with the fixation buffer (10 mM sodium acetate, pH 4.5) to 3.5 μg/mL, and fixed onto the sensor chip according to the protocol accompanying Biacore T200. Mouse or human EphA4 extracellular region-SEAP-His 10 was diluted with the running buffer HBS-EP (GE Healthcare, BR-1001-88), and the solution was sent and captured onto the flow cell for 120 seconds (about 10 RU of captured amount). […] Fitting analysis by 1:1 binding model employing the software accompanying the system, BIA evaluation software, was carried out against the binding reaction curve obtained, and the binding affinity (KD=kd/ka) against mouse and human EphA4 was calculated.

[4] = biological target: T4, human EphA4 extracellular region-SEAP-His protein (human, UniProt P54764 20-547); experiment: SPR (Biacore T200): human EphA4 extracellular region-SEAP-His captured on anti-His antibody, antibody A 1.6-100 nM as analyte, 1:1 fit
T4 construct: also called human EphA4 extracellular region-SEAP-His 10; not shown: secretory alkaline phosphatase (SEAP); histidine tag
T4 sequence (P54764 20-547): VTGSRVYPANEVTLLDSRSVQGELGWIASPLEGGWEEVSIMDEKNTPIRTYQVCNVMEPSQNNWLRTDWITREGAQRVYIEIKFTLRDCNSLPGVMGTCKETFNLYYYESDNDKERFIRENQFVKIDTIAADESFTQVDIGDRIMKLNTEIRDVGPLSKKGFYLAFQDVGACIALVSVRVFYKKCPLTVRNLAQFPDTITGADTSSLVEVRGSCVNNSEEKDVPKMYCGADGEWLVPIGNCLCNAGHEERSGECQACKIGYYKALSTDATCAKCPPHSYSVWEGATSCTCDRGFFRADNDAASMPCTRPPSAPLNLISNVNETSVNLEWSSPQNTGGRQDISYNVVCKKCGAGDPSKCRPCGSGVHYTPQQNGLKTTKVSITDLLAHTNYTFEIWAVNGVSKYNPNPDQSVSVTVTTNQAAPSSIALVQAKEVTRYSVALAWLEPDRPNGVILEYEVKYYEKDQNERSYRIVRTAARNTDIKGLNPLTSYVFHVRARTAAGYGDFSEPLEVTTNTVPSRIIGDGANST
Procedure: as §1

Binder | binding result [1] | binding result [2] | koff [3] [s⁻¹] | kon [3] [M⁻¹ s⁻¹] | koff [4] [s⁻¹] | kon [4] [M⁻¹ s⁻¹]
humanized anti-EphA4 monoclonal antibody (antibody B) (antibody, human IgG2, V domains shown, expressed in Expi293F cells; also called humanized antibody of antibody A; HK2-42 / L1-8) VH: QVQLVESGGGVVQPGRSLRLSCAVSGFSLTRFGVHWVRQAPGKGLEWVAVIWRGGSTDYNAAFMSRLTISKDNSKNTVYLQMNSLRAEDTAVYYCAKESLFGVYYDYGYYSMDYWGQGTTVTVSS VL: DIQMTQSPSSLSASVGDRVTITCRASQEISGYLSWLQQKPGKAPKRLIYAASTLDSGVPSRFSGSRSGTEYTLTISSLQPEDFATYYCLQYASYPLTFGGGTKVEIKR | no binding (tested: 10 µg/mL) |  |  |  |  | 
mouse anti-EphA4 monoclonal antibody (antibody A) (antibody, mouse IgG1, kappa, V domains shown, purified from hybridoma supernatant) VH: QVQLKQSGPSLVQPSQSLSITCTVSGFSLTRYGVHWVRQSPGKGLEWLGVIWRGGSTDYNAAFMSRLSITKDNSKSQVFFKMNSLQADDTAIYYCAKESLFGVYYDYGYYSMDYWGQGTSVTVSS VL: DIQMTQSPSSLSASLGERVSLTCRASQEISGYLSWLQQKPDGTIKRLIYAASTLDSGVPKRFSGSRSGSDYSLTISSLESEDFADYYCLQYASYPLTFGAGTKLELKR |  | no binding (tested: 10 µg/mL) | 0.000433 | 328000 | 0.000448 | 379000

From patent US20240010735A1 (EISAI R AND D MANAGEMENT, published 2024)
